Source: paper PMC7010297, “How the initiating ribosome copes with ppGpp to translate mRNAs” (PLoS Biology, 2020)
Several values for one entry are separate records, joined by “and”; a condition that tells them apart may be missing. Equal values may be shown once. Read-outs that look alike come from different tables or passages of the source.

Molecular target: 30S IC (Escherichia coli, UniProt P0A705)
Settings: for T. initiation Average / T. initiation Replicates: Fig 7A
Procedure: Fig 7 SETIs and ppGpp tolerance. (A) Translation initiation efficiency as a function of mRNAs along five steps of transition from NS to S conditions. […] Symbols and error bars represent averages of three replicates and standard deviations, respectively (S1 Data). (C) Comparison of ppGpp tolerance as calculated from the ratio of translation initiation efficiencies found in the presence of 0.2 mM ppGpp over the efficiencies obtained in the absence of the alarmone (S1 Data). […] All 30S IC components are as in Fig 1. Dashed line indicates the average tolerance of all mRNAs lacking the SETI element.
The transition towards stringent response entails changes in the composition of all guanosine nucleotides. […] To inquire how the 30S IC responds during the transition from non-stringent (NS) to stringent (S) guanosine nucleotide conditions in the cell, we measured translation initiation along 5 combinations of guanosine nucleotides by thermophoresis, from NS to S conditions (Fig 7A).
The 30S complexes were reconstituted using pure subunits, IFs, tRNAi, mRNA, and nucleotides. The 30S subunits were reactivated by incubation in TAKM20 buffer (as TAKM3.5 but with 20 mM MgCl2) for 1 hour at 37°C prior to use. Generally, 30S ICs were formed by incubation at 37°C for 30 minutes in TAKM7 using 1 μM 30S subunits, 4 μM mRNA, 2 μM IF1, 1 μM IF2, 1.5 μM IF3, 0.5 μM Bpy-Met-tRNA^fMet, and 0.2 mM guanosine nucleotides, unless otherwise stated in the Results or figure captions. Ligand titrations were prepared using serial dilutions using 1:1 mixing of complexes containing the highest concentration of the titrant with complexes lacking only the ligand under investigation. The number of reactions were set up to cover a wide range of concentrations.
MST was measured on 10-μL reactions using standard capillaries (MO-K022, NanoTemper Technologies, Munich, Germany) on a Monolith NT.115 (NanoTemper Technologies, Munich, Germany) at monochromatic LED with power input of 30% and IR laser power of 40%. The local temperature perturbation was expected to be less than 3°C. All measurements were performed at room temperature (22 ± 2°C). Three to four replicates were measured for each investigated reaction to calculate mean and standard deviation. […] KD were calculated using a hyperbolic or quadratic function using Graphpad Prism 6.0 (GraphPad, San Diego, California) or software provided by NanoTemper.

B1: mTufA: TufA mRNA with full-length 5′ UTR, in vitro transcribed, codes for EF-Tu (nucleic acid)
chain: GGUUCUAUCGCCUUUAAAGAAGGCUUUAAGAAAGCGAAACCAGUUCUGCUUGAGCCGAUCAUGAAGGUUGAAGUAGAAACUCCGGAAGAGAACACCGGUGACGUUAUCGGUGACUUGAGCCGUCGUCGUGGUAUGCUCAAAGGUCAGGAAUCUGAAGUUACUGGCGUUAAGAUCCACGCUGAAGUACCGCUGUCUGAAAUGUUCGGAUACGCAACUCAGCUGCGUUCUCUGACCAAAGGUCGUGCAUCAUACACUAUGGAAUUCCUGAAGUAUGAUGAAGCGCCGAGUAACGUUGCUCAGGCCGUAAUUGAAGCCCGUGGUAAAUAAGCCUAAGGGUUAAUACCAAAGUCCCGUGCUCUCUCCUGAAGGGGAGAGCACUAUAGUAAGGAAUAUAGCCGUGUCUAAAGAAAAAUUUGAACG
NS to S 1
  T. initiation Average: 81.23%
  T. initiation Replicates: 79.55% and 82.59% and 81.55%
NS to S 2
  T. initiation Average: 75.89%
  T. initiation Replicates: 72.98% and 77.43% and 77.26%
NS to S 3
  T. initiation Average: 60.14%
  T. initiation Replicates: 59.08% and 60.37% and 60.97%
NS to S 4
  T. initiation Average: 45.96%
  T. initiation Replicates: 44.86% and 46.36% and 46.65%
NS to S 5
  T. initiation Average: 23.01%
  T. initiation Replicates: 22.61% and 23.62% and 22.79%
S: 1 mM ppGpp, 0.25 mM pppGpp, 0.14 mM GTP, 0.05 mM GDP
  translation initiation efficiency (30S IC formation retained) at S conditions: 25%
